Experiments:
[1] = molecular target: T1, autotaxin (ENPP2/NPP2) (Homo sapiens, UniProt Q13822 Q13822:36-863); assay: inhibition; NPP2 assay, 1 mM pNP-TMP, 0.3 nM autotaxin, 37 C
[2] = molecular target: T1, autotaxin (ENPP2/NPP2); assay: inhibition; NPP2 assay, 37 C; no SPR binding
[3] = molecular target: T1, autotaxin (ENPP2/NPP2); assay: SPR; not more than 10% of SEQ 12 signal; aptamer 0.3 uM; solution A
[4] = molecular target: T2, autotaxin (endogenous, human pooled serum) (Homo sapiens, UniProt Q13822 Q13822:36-863); assay: inhibition; LPA production in serum, 0.025 uM
[5] = molecular target: T1, autotaxin (ENPP2/NPP2); assay: inhibition; LysoPLD assay, 2 mM 14:0 LPC, 2.1 nM autotaxin, 37 C
[6] = molecular target: FGF2 (UniProt P09038 P09038:135-288); assay: SPR; specificity control; FGF2 immobilized, aptamer 0.3 uM; solution A; conditions: tags: PeproTech
Sequence of FGF2 (P09038 135-288, one chain of several): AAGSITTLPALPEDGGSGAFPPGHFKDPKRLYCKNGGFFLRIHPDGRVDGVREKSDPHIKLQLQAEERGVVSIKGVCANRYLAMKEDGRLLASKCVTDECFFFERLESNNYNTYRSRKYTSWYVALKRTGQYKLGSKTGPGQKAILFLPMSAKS

[7] = molecular target: T2, autotaxin (endogenous, human pooled …); assay: inhibition; LPA production in serum, 1.0 uM
[8] = molecular target: T1, autotaxin (ENPP2/NPP2); assay: inhibition; NPP2 assay, pNP-TMP, 37 C

B1: SEQ 8 aptamer (ssDNA)
DNA: GTGGTCTAGCTGTACTCCGAAAGCCGGAACCGTGCCAATGGTCGCTACTTCAGCTCCCCACAGTCAACGAGCTA
[1]
  IC50: 10 nM

## CCTGGACGGAACCAATACTTGGTCTCCAGG (ssDNA) [SEQ 15 aptamer]
[2]
  IC50: 990 nM
[3]
  binding result: no binding

B2: 12(144) (ssDNA)
DNA: CCTGGACGGAACCAGAATACTTTTGGTCTCCAGG
modifications: 2'-OMe C7,G9,A14,G15,A19,C20,A32,G33,G34; P-methyl C1,G5,G8,C12,A16,T21,T23,C28,C30,C31,G34; 5' 40 kDa PEG via ssH linker, 3' idT
[4]
  activity: 87 % inhibition
[5]
  IC50: 1.6 nM

B3: 12(149) (ssDNA)
DNA: B2 DNA
modifications: 2'-OMe C7,G9,A14,G15,A19,C20,A32,G33,G34; P-methyl G5,G8,C12,A16,T21,T23,C28,C30,C31,G34; 5' idT, 3' idT
[5]
  IC50: 6.1 nM

B4: 12(48) (ssDNA)
DNA: B2 DNA
modifications: 2'-OMe C7,G9,A14,G15,A19,C20,A32,G33,G34; 5' 40 kDa PEG (GL2-400GS2) via ssH linker, 3' idT
[6]
  binding result: no binding
[7]
  activity: 92 % inhibition

## CCTGGACGGAACCAGAATACTTTTGGTCTCCAGG (ssDNA, 2'-OMe C7,G9,A14,G15,A19,C20,A32,G33,G34; 3' idT) [12(148)]
[8]
  IC50: 6.8 nM

Reference: US20170137818, “APTAMER INHIBITING BIOLOGICAL ACTIVITY OF AUTOTAXIN BY BINDING WITH AUTOTAXIN, AND USE THEREOF” (RIBOMIC INC., published 2017)
